Experimental findings from patent US20060211075A1, “Enzyme sensors including environmentally sensitive or fluorescent labels and uses thereof” (The Albert Einstein College of Medicine of Yeshiva …, priority 2005, published 2006) are described below.

Non-standard residues stand in square brackets, D forms with d. Residues, ends and D or L forms follow the SMILES beside them. No end group written: not given here. *: point of attachment. Cascade Yellow = fluorophore from Cascade Yellow succinimidyl ester, attached to the Dab or Dap side chain; pY = N[C@@H](Cc1ccc(OP(=O)(O)O)cc1)C(=O)O; NBD = O=[N+]([O-])c1ccc(*)c2nonc12; Dab = NCC[C@H](N)C(=O)O; Dap = NC[C@H](N)C(=O)O Bounds are passed on as bounds.

Assay [1] has as its target T1, Src (Homo sapiens, UniProt P12931). Put plainly: Src kinase-catalyzed phosphorylation of self-reporting fluorophore-peptides, fluorescence change (no detection module). Conditions: for Fluorescence change (fold): upon phosphorylation; for Phosphorylation-induced fluorescence change: Src, no detection module.
Protocol: Tyrosine kinase-catalyzed phosphorylation was initiated by addition of 15 μL of 10 mM ATP to the following solution: 3 μL 0.1 mM peptide stock solution, 3.8 μL 200 mM MgCl2, 1.5 μL 100 mM MnCl2, 23.2 μL H2O, 6 μL 50 mM DTT, 15 μL 0.1 mg/mL BSA, and 7.5 μL 0.03 μM Src in 75 μL Tris buffer solution (pH 7.2).
The target of assay [2] is T1, Src. In words: Assay of library: Src kinase-catalyzed phosphorylation of fluorophore-labeled peptides in presence of Lck-SH2, fluorescence change. It counts as biochemical. The arrangement: purchased Invitrogen. Conditions: fluorophore attachment site +4; —NH2 derivative (in parentheses, amide-capped); Lck-SH2 present. The procedure: The library was prepared via parallel synthesis using a previously described disulfide-linked Tentagel resin (see “Synthesis of Peptide Library” below). Following solid phase synthesis of the primary sequence, the side chain amine of the Dap or Dab residue was selectively deprotected and subsequently modified with the appropriate activated forms of 5, 6, and 7. The remaining protecting groups on the peptide were then removed with trifluoroacetic acid (TFA), the peptide-resin extensively washed to eliminate the last traces of TFA, and the peptide cleaved from the resin with assay buffer (which contained dithiothreitol) and purified by HPLC. The fluorescent response of the individual library members to Src catalysis in the presence of Lck SH2 was subsequently examined in detail (see “Assay of Library” below).
(§1) The fluorescence change was monitored as a function of time. Control assays in the absence of Lck-SH2 were also performed.

The target in assay [3] is T2, GST-Lck-SH2 (Homo sapiens, UniProt P06239).
T2 construct: made in house; host or cells: E. coli
T2 sequence (P06239 127-224 limits assumed): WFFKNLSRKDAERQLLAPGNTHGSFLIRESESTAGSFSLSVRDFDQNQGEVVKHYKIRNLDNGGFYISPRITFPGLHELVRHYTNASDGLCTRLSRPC
Put plainly: Fluorescence change as a function of Lck-SH2 concentration (Src-catalyzed phosphorylation). It counts as biochemical.
Excerpt: As is evident from Table 1, the dapoxyl fluorophore positioned off the +3 and +4 sites on the peptide substrate (Dap-5 and Dab-5) produce the largest changes in fluorescent behavior. Two peptides (13 and 14, FIG. 4) were examined in greater detail. Both peptides were resynthesized on the Rink resin and purified by HPLC. In addition, the phosphotyrosine version of 13 was enzymatically prepared. […] If the SH2 domain is responsible for the fluorescence change induced by Src kinase-catalyzed phosphorylation, then the Lck SH2 domain concentration should influence the observed fluorescence response. […] The reactions were initiated by the addition of ATP. When only buffer was added to “initiate” the reaction (i.e. no ATP), the fluorescence of the mixture remained unperturbed. Furthermore, in the absence of Lck SH2 domain, ATP addition to initiate the reaction furnished an exceedingly modest change in fluorescence intensity (<5%). By contrast, increasing concentrations of SH2 domain produced increasing enhancements in fluorescence intensity. Above an Lck SH2 concentration of 16 μM, the change in fluorescence intensity began to level off, which is in keeping with the notion that the interaction between phosphopeptide and Lck SH2 domain was approaching saturation. […] This appears to be a consequence of the —NH(CH2)2SH tail that is present on the library members (but not on the amide-capped peptides, as a consequence of the respective synthesis methods used).
as §1
The assay protocol described above was used to assess the effect of GST-Lck-SH2 concentration on the observed fluorescence associated with the phosphorylation of pure peptide 13 (30 nM Src) and peptide 14 (15 nM Src).

Assay [4] addresses T1, Src. Put plainly: Vmax and Km of Src kinase-catalyzed phosphorylation at fixed Lck-SH2 (20 μM). It counts as biochemical. Details: purchased Invitrogen. Conditions: varying peptide. How it is done:
as §1
The final Src concentration was 30 nM for peptide 13 and 15 nM for peptide 14.

Assay [5] concerns the target T3, PTP1B (Homo sapiens, UniProt P18031).
T3 construct: purchased Invitrogen
T3 sequence (P18031 1-435): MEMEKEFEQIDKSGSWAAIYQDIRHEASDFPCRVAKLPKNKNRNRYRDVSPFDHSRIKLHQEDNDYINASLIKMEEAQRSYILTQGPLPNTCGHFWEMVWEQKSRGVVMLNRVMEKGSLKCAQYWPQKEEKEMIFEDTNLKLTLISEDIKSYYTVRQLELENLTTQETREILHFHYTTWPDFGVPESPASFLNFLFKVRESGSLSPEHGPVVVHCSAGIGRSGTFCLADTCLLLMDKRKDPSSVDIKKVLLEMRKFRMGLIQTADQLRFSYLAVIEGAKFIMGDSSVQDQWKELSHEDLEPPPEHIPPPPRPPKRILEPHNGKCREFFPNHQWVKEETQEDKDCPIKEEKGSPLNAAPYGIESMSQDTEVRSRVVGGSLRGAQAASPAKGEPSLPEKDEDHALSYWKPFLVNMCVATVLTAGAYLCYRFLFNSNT
Put plainly: Effect of PTP1B on the fluorescence change. It counts as biochemical. Conditions: peptide substrate 4 μM; GST-Lck-SH2 22 μM.

For assay [6], the target named is T4, Lck SH2 domain (Homo sapiens, UniProt P06239).
T4 construct: made in house; host or cells: E. coli
T4 sequence (P06239 127-224 limits assumed): as the sequence (P06239 127-224 limits assumed) above
In words: Effect of competing Lck-SH2 domain ligand on the fluorescence change. It counts as binding. Conditions: ligand 50 μM, peptide substrate 4 μM, GST-Lck-SH2 22 μM. The source says:
As is evident from Table 1, the dapoxyl fluorophore positioned off the +3 and +4 sites on the peptide substrate (Dap-5 and Dab-5) produce the largest changes in fluorescent behavior. Two peptides (13 and 14, FIG. 4) were examined in greater detail. Both peptides were resynthesized on the Rink resin and purified by HPLC. In addition, the phosphotyrosine version of 13 was enzymatically prepared. […] If the SH2 domain is responsible for the fluorescence change induced by Src kinase-catalyzed phosphorylation, then the Lck SH2 domain concentration should influence the observed fluorescence response. […] The reactions were initiated by the addition of ATP. When only buffer was added to “initiate” the reaction (i.e. no ATP), the fluorescence of the mixture remained unperturbed. Furthermore, in the absence of Lck SH2 domain, ATP addition to initiate the reaction furnished an exceedingly modest change in fluorescence intensity (<5%). By contrast, increasing concentrations of SH2 domain produced increasing enhancements in fluorescence intensity. Above an Lck SH2 concentration of 16 μM, the change in fluorescence intensity began to level off, which is in keeping with the notion that the interaction between phosphopeptide and Lck SH2 domain was approaching saturation. […]

[7] abbreviates: fluorophore on Dab at position Y−2, λex/λem (nm) (first pair listed for the fluorophore).
The mark [8] stands for this setting: fluorophore on Dap at position Y+3, λex/λem (nm) (first pair listed for the fluorophore).

Regarding Dansyl, the “Fluorescence change (fold)” value in assay [1] (setting [7]) and in assay [1] (setting [8]) was 1.0 fold throughout.
As to BODIPY FL, the “Fluorescence change (fold)” value in assay [1] (setting [8]) came to 1.06 fold.
As to “27: corresponding peptide containing Cascade Yellow positioned at Y+3, SEQ ID NO:16 (EEEIYGE[Dap](Cascade Yellow)EA) [Peptide 27]”, the Phosphorylation-induced fluorescence change entry in assay [1] is “smaller fluorescence response”.
What is called Km is the substrate concentration at which the rate is half of its maximum. The Vmax is the top rate of the reaction or transport when substrate is in excess. As to “Ac-Glu-Glu-Glu-Ile-Tyr-Gly-Glu-Ile-Dab(dapoxyl)-Ala (Ac-EEEIYGEI[Dab](dapoxyl)A-NH2; not fully specified; printed as Ac-Glu-Glu-Glu-Ile-Tyr-Gly-Glu-Ile-Dab(dapoxyl)-Ala) [Peptide 14]”, the “Fold change in fluorescence intensity in the Src kinase-catalyzed phosphorylation” value in assay [2] amounted to 7.2 fold. Besides, the “Fluorescence Increase” value in assay [3] (peptide 8 μM, Lck-SH2 0.2 μM, 15 nM Src) was 1.07 fold change; in assay [3] (peptide 8 μM, Lck-SH2 2 μM, 15 nM Src), 1.70 fold change; in assay [3] (peptide 8 μM, Lck-SH2 4 μM, 15 nM Src), 2.32 fold change; in assay [3] (peptide 8 μM, Lck-SH2 8 μM, 15 nM Src), 4.31 fold change; in assay [3] (peptide 8 μM, Lck-SH2 12 μM, 15 nM Src) it was 5.34 fold change; in assay [3] (peptide 8 μM, Lck-SH2 16 μM, 15 nM Src), 6.20 fold change. In addition, the “Fluorescence Increase” value in assay [3] (peptide 8 μM, Lck-SH2 20 μM, 15 nM Src) is on record as 6.85 fold change; in assay [3] (peptide 8 μM, Lck-SH2 26 μM, 15 nM Src) it was 7.32 fold change; in assay [3] (peptide 8 μM, Lck-SH2 32 μM, 15 nM Src), 7.20 fold change. Moreover, the Km in assay [4] was 4.8 ± 0.8 µM. Also, in assay [4], the Vmax stood at 1.5 ± 0.1 µmol/min/mg.
As to “NBD (Ac-EEEIY[Dap](NBD)EIEA-NH2; SMILES CC[C@H](C)[C@H](NC(=O)[C@H](CCC(=O)O)NC(=O)[C@H](CNc1ccc([N+](=O)[O-])c2nonc12)NC(=O)[C@H](Cc1ccc(O)cc1)NC(=O)[C@@H](NC(=O)[C@H](CCC(=O)O)NC(=O)[C@H](CCC(=O)O)NC(=O)[C@H](CCC(=O)O)NC(C)=O)[C@@H](C)CC)C(=O)N[C@@H](CCC(=O)O)C(=O)N[C@@H](C)C(N)=O)”, the “Fluorescence change (fold)” value worked out at 1.7 fold in assay [1] (setting [7]) and 1.25 fold in assay [1] (setting [8]).
Regarding `CC[C@H](C)[C@H](NC(=O)[C@H](CCC(=O)O)NC(=O)[C@H](CNc1ccc([N+](=O)[O-])c2nonc12)NC(=O)[C@H](Cc1ccc(O)cc1)NC(=O)[C@@H](NC(=O)[C@H](CCC(=O)O)NC(=O)[C@H](CCC(=O)O)NC(=O)[C@H](CCC(=O)O)NC(C)=O)[C@@H](C)CC)C(=O)N[C@@H](CCC(=O)O)C(=O)N[C@@H](C)C(N)=O` [Peptide 13, Ac-Glu-Glu-Glu-Ile-Tyr-Dap(NBD)-Glu-Ile-Glu-Ala] (Ac-EEEIY[Dap](NBD)EIEA-NH2), in assay [3] (absence of Lck SH2 domain, peptide 16 μM), the “change in fluorescence intensity on ATP addition” value is given as less than 5%. The “Fluorescence Increase” value came out at 1.07 fold change in assay [3] (peptide 16 μM, Lck-SH2 0 μM, 30 nM Src); 1.24 fold change in assay [3] (peptide 16 μM, Lck-SH2 4 μM, 30 nM Src); 1.33 fold change in assay [3] (peptide 16 μM, Lck-SH2 8 μM, 30 nM Src); 1.41 fold change in assay [3] (peptide 16 μM, Lck-SH2 12 μM, 30 nM Src); 1.52 fold change in assay [3] (peptide 16 μM, Lck-SH2 16 μM, 30 nM Src); 1.56 fold change in assay [3] (peptide 16 μM, Lck-SH2 20 μM, 30 nM Src). In addition, the “Fluorescence Increase” value amounted to 1.61 fold change in assay [3] (peptide 16 μM, Lck-SH2 26 μM, 30 nM Src) and 1.59 fold change in assay [3] (peptide 16 μM, Lck-SH2 32 μM, 30 nM Src). The “fluorescence change when PTP1B is added at the same time as ATP” value in assay [5] is on record as “blocked the fluorescence change”. Further, in assay [5], the “fluorescence intensity when PTP1B is added after completion of the Src kinase-catalyzed reaction” value is recorded as “reduced the fluorescence intensity to the starting value”.
As to “Ac-pTyr-Glu-Glu-Ile-Glu-amide (Ac-[pY]EEIE-NH2; SMILES CC[C@H](C)[C@H](NC(=O)[C@H](CCC(=O)O)NC(=O)[C@H](CCC(=O)O)NC(=O)[C@H](Cc1ccc(OP(=O)(O)O)cc1)NC(C)=O)C(=O)N[C@@H](CCC(=O)O)C(N)=O)”, the “fluorescence change of the Src reaction in presence of known Lck SH2 domain ligand” value in assay [6] is reported as “no fluorescence change was observed”; in assay [6] (listed as Ac-pTyr-Glu-Glu-Ile-Glu-OH), “no fluorescence change”.
Take Cascade Blue ™: the “Fluorescence change (fold)” value in assay [1] (setting [7]) is reported as 2.1 fold; in assay [1] (fluorophore on Dap at position Y+3, λex 379 nm, λem 422 nm) it was 1.7 fold; in assay [1] (setting [8]) it was 1.7 fold.
Take “Cascade Yellow (EE[Dab](Cascade Yellow)IYGEIEA)”: the figures for the “Fluorescence change (fold)” value in assay [1] (setting [7]) and in assay [1] (setting [8]) were 2.7 fold and 1.45 fold, respectively.
Take “Sensor 26: Cascade Yellow-containing sensor, fluorophore on Dab at Y−2, SEQ ID NO:15 (EE[Dab](Cascade Yellow)IYGEIEA)”: in assay [1], the Phosphorylation-induced fluorescence change amounted to 2.7 fold.
